This note sets out measurements from EP1557432B1.

The assay concerns the target TBP-hCGβ(20-190). Description: sandwich immunoassay for the hCG heterodimer (anti-hCG β capture, anti-TSH α detection), COS-7 cotransfection of α and β fusions.

For the substance TBP-hCGα(20-190), the Concentration (ng/ml) of heterodimer in hCG heterodimer assay was determined as 38 ng/mL.
